According to US20040151721A1 (Takeda / Millennium, published 2004):
Several values for one entry are separate records, joined by “and”; a condition that tells them apart may be missing. Identical values can stand only once.

Experiments:
[1] = target: T1, CCR1 expressed on L1/2 transfectants (UniProt P32246 1-355, limits assumed); assay: flow cytometry on L1/2 transfectants, hybridoma supernatant
T1 construct: whole, on cells; also called CCR1 transfectants
T1 sequence (looked up): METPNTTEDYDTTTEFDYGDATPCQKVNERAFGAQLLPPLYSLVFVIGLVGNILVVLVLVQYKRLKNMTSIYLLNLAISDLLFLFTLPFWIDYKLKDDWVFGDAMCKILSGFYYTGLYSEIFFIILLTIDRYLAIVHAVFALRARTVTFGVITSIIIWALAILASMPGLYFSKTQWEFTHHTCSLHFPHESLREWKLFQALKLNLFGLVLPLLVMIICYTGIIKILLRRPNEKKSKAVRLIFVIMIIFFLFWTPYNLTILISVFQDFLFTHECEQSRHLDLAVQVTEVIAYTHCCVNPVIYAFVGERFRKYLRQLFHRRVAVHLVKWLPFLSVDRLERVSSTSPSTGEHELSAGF
Procedure: (§1) For the staining of cultured transfectant cell lines 0.5×10^6 cells in 50 μl were resuspended in PBS+1% FCS in a 96 well polystyrene V-bottom plate. 50 μl of primary antibody supernatants or HT medium (negative control) were added, and the samples were incubated at 4° C. for 30 min. 100 μl of PBS were added and the cells were pelleted by centrifugation and washed once with PBS. The pellet was resuspended in 100 μl PBS+1% FCS containing FITC-conjugated goat anti-mouse IgG antibody (a 1:250 dilution) and incubated for thirty minutes at 4° C. in the dark. The cells were washed twice with PBS, resuspended in PBS, and analyzed by flow cytrometry with a FacScan cytometer using the CellQuest software (Becton-Dickenson) Cells were fixed with PBS/1% formaldehyde if they were not to be analyzed the same day. Monoclonal antibodies 1D9 and 8G2 stain CCR2 transfectants but not CCR1 or CCR5 transfectants (FIG. 1).

[2] = target: T2, CCR5 expressed on L1/2 transfectants (UniProt P51681 1-352, limits assumed); assay: as above
T2 construct: whole, on cells; also called CCR5 transfectants
T2 sequence (P51681 whole entry): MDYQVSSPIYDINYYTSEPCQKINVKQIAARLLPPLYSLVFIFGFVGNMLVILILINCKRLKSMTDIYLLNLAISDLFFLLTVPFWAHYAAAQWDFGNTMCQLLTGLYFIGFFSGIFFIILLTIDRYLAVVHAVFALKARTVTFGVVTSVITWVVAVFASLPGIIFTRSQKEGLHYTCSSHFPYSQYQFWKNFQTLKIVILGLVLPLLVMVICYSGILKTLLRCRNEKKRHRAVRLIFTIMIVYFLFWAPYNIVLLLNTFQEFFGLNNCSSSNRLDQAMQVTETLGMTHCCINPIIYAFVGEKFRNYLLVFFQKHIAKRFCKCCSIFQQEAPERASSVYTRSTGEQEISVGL
Procedure: as §1

[3] = target: T3, human CCR2, endogenous on THP-1 cells / THP-1 cell membranes, fresh PBMC and whole blood cells (human, UniProt P41597 1-374); assay: inhibition of 0.1 nM [125I]MCP-1 binding to fresh PBMC, filtration and scintillation counting
T3 construct: whole, on cells; Native receptor; It was used on whole cells and as a THP-1 membrane preparation; The splice form is not specified for THP-1; also called CCR2b (on blood cells)
T3 sequence (P41597 whole entry, canonical isoform): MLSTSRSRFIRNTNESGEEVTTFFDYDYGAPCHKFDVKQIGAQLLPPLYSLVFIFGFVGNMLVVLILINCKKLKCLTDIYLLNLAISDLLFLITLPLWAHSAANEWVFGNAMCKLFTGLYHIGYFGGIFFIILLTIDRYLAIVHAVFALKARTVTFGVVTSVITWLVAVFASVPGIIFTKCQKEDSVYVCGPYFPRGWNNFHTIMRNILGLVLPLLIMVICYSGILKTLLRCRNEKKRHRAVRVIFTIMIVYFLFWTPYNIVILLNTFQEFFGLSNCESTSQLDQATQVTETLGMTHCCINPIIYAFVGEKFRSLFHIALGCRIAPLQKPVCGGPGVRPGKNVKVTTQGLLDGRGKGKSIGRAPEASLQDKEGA
Procedure: The amount of bound tracer was determined by separation of free from bound by filtration and scintillation counting. The data was analyzed to determine the IC50 value as for FIG. 4.
(§2) Competition binding experiments were performed by including variable concentrations of unlabeled MCP-1, 1D9 antibody, or a negative control IgG2a. Nonspecific binding was determined following the addition of a 2500-fold excess of unlabeled MCP-1. Samples were incubated for 60 minutes at room temperature, and bound and free tracer were separated by filtration through 96-well GF/B filterplates presoaked in 0.3% polyethyleneimine.

[4] = target: T3, human CCR2, endogenous on THP-1 cells / …; assay: inhibition of 0.1 nM [125I]MCP-1 binding to THP-1 cell membranes, filtration and scintillation counting
Procedure: The amount of bound tracer was determined by separation of free from bound by filtration and scintillation counting. The data was analyzed to determine the IC50 value by non-linear regression using a 4-parameter logistic equation with KaleidaGraph software.
as §2

binding result [1]: no binding | binding result [2]: no binding | IC50 [3]: 0.04 µg/mL and ~0.2 nM | IC50 [4]: ~0.004 µg/mL and ~0.02 nM
B1: murine monoclonal antibody LS132.1D9 (1D9) (antibody, V domains shown)
VH: EVQLVESGGGLVQPKGSLKLSCAASGFSFNAYAMNWVRQAPGKGLEWVARIRTKNNNYATYYADSVKDRYTISRDDSESMLFLQMNNLKTEDTAMYYCVTFYGNGVWGTGTTVTVSS
VL: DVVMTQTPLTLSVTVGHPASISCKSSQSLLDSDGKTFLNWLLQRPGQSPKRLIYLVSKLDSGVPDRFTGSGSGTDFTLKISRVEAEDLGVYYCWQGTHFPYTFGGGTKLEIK
notes: Mouse hybridoma antibody with a kappa light chain; The controls used were murine IgG2a and an 'isotype-matched' antibody, so IgG2a is implied; It was used as hybridoma supernatant in FACS; also called mAb 1D9; mus-1D9
